This note sets out measurements from US20150299686A1.

Data set [1] has as its target FrsA (Fermentation Respiration Switch) protein from Vibrio vulnificus, wild type, recombinant (Vibrio vulnificus) (UniProt Q7MN61). The experiment in a line: cell-based or functional assay.
The target in data set [2] is non-phosphorylated recombinant IIA^Glc protein (crr gene product) from Vibrio vulnificus.
Data set [3] concerns the target phosphorylated recombinant IIA^Glc protein (crr gene product) from Vibrio vulnificus.

In the case of “non-phosphorylated recombinant IIA^Glc protein (crr gene product) from Vibrio vulnificus”, in data set [1], the catalytic activity of FrsA as fold over PDC amounted to 17 times.

B1: FrsA (Fermentation Respiration Switch) protein from Vibrio vulnificus, wild type, recombinant (protein)
chain: MSEEVSKNLSETLFVKHKQAIETSALTQYMPTSQSLLDEIKEKNGFSWYRNLRRLQWVWQGVDPIEQEQVLARIASSKHSRTDEQWLDTVMGYHSGNWAYEWTRLGMEHQKRAGEMTNEAASEALFSASLCYSIAGYPHLKSDNLAIQAQVLANSAYLEAAKKSKYIIKQLEIPFEKGKITAHLHLTNTDKPHPVVIVSAGLDSLQTDMWRLFRDHLAKHDIAMLTVDMPSVGYSSKYPLTEDYSRLHQAVLNELFSIPYVDHHRVGLIGFRFGGNAMVRLSFLEQERIKACVILGAPIHDIFASPQKLQQMPKMYLDVLASRLGKSVVDIYSLSGQMAAWSLKVQGFLSSRKTKVPILAMSLEGDPVSPYSDNQMVAFFSTYGKAKKISSKTITQGYEQSLDLAIKWLEDELLR
Consider B1, for which, in data set [2], the Km (pyruvate decarboxylation by FrsA with dephospho-IIA^Glc added) is 0.39 mM, the kcat (pyruvate decarboxylation by FrsA with dephospho-IIA^Glc added) stood at 2980 ± 158 s⁻¹ and the kcat/Km (pyruvate decarboxylation by FrsA with dephospho-IIA^Glc added) is 7640 ± 713 s⁻¹ mM⁻¹. In data set [3], the Km (pyruvate decarboxylation by FrsA with phospho-IIA^Glc added) came out at 0.39 mM, the kcat (pyruvate decarboxylation by FrsA with phospho-IIA^Glc added) stood at 1310 ± 48 s⁻¹ and the kcat/Km (pyruvate decarboxylation by FrsA with phospho-IIA^Glc added) was found to be 3360 ± 150 s⁻¹ mM⁻¹.
